Results from the nanobody polyreactivity screen of Harvey et al. (2022).

assay: yeast display, Sf9 membrane polyspecificity reagent, FACS + sequencing; frameworks hold sequencing errors
Method in brief: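 Galactose-induced (36–48 hours) yeast carrying a synthetic nanobody display library were exposed to 10% biotinylated, detergent-solubilized Sf9 membrane reagent at 4 °C for 1 hour. FACS followed streptavidin microbead enrichment, using low and high (top ~1%) gates for expression (anti-HA) and reagent binding (streptavidin). Colony PCR, MiSeq 2 × 250 sequencing and CDR-length filtering followed. Labels for polyreactivity reflect the gate of origin.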

| Sequence | polyreactivity (PSR sort gate) |
| --- | --- |
| QVQLVESGGGLVQAGGSLRLSCAACGFTFAYYAMGWYRQAPGKERELVATITSGGRTYYADSVKGRFTISRDNAKNTVYFQMNSLKPEDTAVYYCAGAGKGRYHFRSTMDYWGQGTQVTVSS | high polyreactivity |
| QVQLVESGGGLVQAGGSLRLSCAASGFTFLRNAMGWYRQAPGKERELVATISTSGGSTYYADSVKGRFTISRDNAKITVYLQMNSLKPEDTAVYYCAKRYRTRDSGYDYWGQGTQVTVSS | high polyreactivity |
| QVQLVESGGGLVQAGGSLRLICAASGSTFNDYVMGWYRQAPGKERELVAAISRSGGSTYYADSVKGRITISRDNAKNTVYLQMNSLKPEDTAVYYCAAASPGPWRYDYWGQGTQVTVSS | high polyreactivity |
| QVQLVDSGGGLVQAGGSLRLSCAASGSILAINTMGWYRPAPGKEREFVAAISAGGTSTYYADSVKGRFTISRDNAKNTVSLQMNSLKPEDTAVYYCAAIFIIYRTGYRRYYWGQGTQVTVSS | high polyreactivity |
| QVQLVESGGGLVQAGGSLRLSCAASGRIFGGYAMGWYRQAPGKERELVAAISSSGGRTYYADSVKGRFTISRDNAKNTVYLQMKSLKPEDTAVYYCNAGAGQRVSGHSFEYWGQGTQVTVSS | high polyreactivity |
| QVQLVESGGGLVLAGGSLRLSCAASGSIFPLYAMGWYRQAPGKERELVAAITGTSSTYADSVKGRFTISRDNAKNTVYLQMNSLKPEDTAVYYCARVGWSWPRREKYNYWGQGTQVTVSS | high polyreactivity |
| QVQLVESGGGLVQAGGSLRLTCAASGSIFRYYAMGWYRQAPGKERELVAAISRSGGSTYYADSVKGRFTISRDNAKNTVYLQMNSLKPEDTAVYYCAAEYRVRSQGYDYWGQGTQVTVSS | high polyreactivity |
| QVQLVESGGGLVQAGGSLRLSCAASGRTSKGNTMGWYRQAPGKEREFVATISRSGGSTYYADSVKGRFTISRDNAKNTVYLQMNSLKPEDTAVYYCAARISRQRSYSRDYWGQGTQVTVSS | high polyreactivity |
| QVQLVDSGGGLVQAGGSLRLSCAASGLTIPVYTMVWYRHAPGTEREFVAAITYNGGRTYYADCVKGRFTISRDNAKNTVYLQMNSLKPEDTAVYYCAAEYGTYFVRYYAGASYRYGYWGQGTQVTVSS | low polyreactivity |
| QVQLVESGGGLVQAGGSLRLSCAASGSTFYIYAMGWYRQAPGKERELVARISGSGGSTYYADSVKVRFTISRDNAKNTVYLQMNSLKPEDTAVYYCAVDPPYSDSLSRYGYWGQGTQVTVSS | low polyreactivity |
| QDQLVEERGGLVQAGGSLRLSCAASGITFSTNAMGWYRQAPGKERELVAAITSVTSTYYADSVKGRFTISRDYAKNSVYLQMNSLKTEDTAVLYCAASLSRWPYFYEYNYWGQGTQVTVSS | low polyreactivity |
| QLQLVESGGVIVQAGGSLRLSCAASGITIYYNAMGGYRHAPGQVRELVAAITRSGGSPNYADSVKGRFTISRDNAKNNVYLQMKSLKPEDTAVYSCAKGHLYAGHRHYAYGYWGQGTQVTVSS | low polyreactivity |
| QVQLVESGGGLVQAGGSLRLSCAASGLIFAGYAKGWYRQAPGKERELVAAISTSGGRTYYADSVKGRFTISRDNAKNTVYLQMNSLKPEDTAVYYCAAYPVHGKTQELAKEDYWGQGTQVTVSS | high polyreactivity |
| QGQHVESGGGLVQAGGSLRLSCAASGTFVYAMGWYRQAPGKERELVAAISYSGGSTYYADSVKGRFTISRDNAKNTVYLQMNSLKPEDTAVFYCNVLGWYYTTTKYDYWGQGTQVTVSS | high polyreactivity |
| QVQLVESGGGLVQAGGSLRLSCAASGRTFGYNAMGWYRQAPGKERELVATISWGCGSTYYADSLKWRFTISPDNAKNTVYLQMNSLKPEDTAVYYCNKVHYGRLHSYSRAIYGEDYWGQGTQVTVSS | high polyreactivity |
| QVQLVESGGGLVQAGGSLRLSCAASGSIFLYNAMGWYRQAPGKESEFDAAISWSGVSTYYADSVKGRFTISRDNAKNTVYLHMNSLKPEDTAVYYCNAVYARVPIYDYWGQGTQVTVSS | low polyreactivity |
| QVQLVESGGGLVQAGGSLRISCAASGITFSYYAMGWYTPAPGKERELVAAINSGGGSTYYADSVKGRFTISRDNAKNTVYLQMNSLKPEDTAVYYCSARYRSRYDYYYDRDYWGQGTQVTVSS | low polyreactivity |
| QVQLVESGVGLVQAGGSLRLSCAASGSIFKYYAMGWYRQAPGKERELVAAISSNGGRTYYADSVKGRFTISRDNAKNTDYLQMNSLKPEDTAVYYCARRYRRTGESEYDYWGQGTQVTVSS | high polyreactivity |
| QVQLVESGGGLVQAGGSLRLSCAASGSTFVTYAMGWYRQAPGKEREFVAAISRTGGSTYYADSVKGRFTISRDNAKYTVYLQMNSLKPEDSAVYYCNRVGRGYSHNQYDLGYWGQGTLVTVSS | low polyreactivity |
| QVQLVESGGGLVQAGGSLRLSCAASGFIFRYNAMGWYRQAPGKERELVAAITSNGGRTYYADSVKGRFTISRDNAKNTVYLQMNSLKPEDTAVYYCNALGRTYPAYQDDYWGQGTQVTVSS | high polyreactivity |

| Sequence | polyreactivity (PSR sort gate) |
| --- | --- |
| QVQLVESGGGLVQAGGSLRLSCAASGRTFRYYAMGWYRQAPGKERELVAAIDTSSGSTYYADSVKGRFTISRDNAKNTVYLQMKSLKPEDTAVYYCNATWWIPLFYDYWGQGTQVTVSS | low polyreactivity |
| QVQLVESGGGLVQAGGSLRLSCAASGSILADYAMGWDRQAPGKERELVAGISSGGSTNYADSVKGRFTISRDNAKNTVYLQMNSLKPEDTAVYYCNADQDFLFIGYLFDYWGQGTQVTVSS | low polyreactivity |
| QVQLVESGGGLVQAGGSLRLSCAASGRTFYPNTMGWYRQAPGKERELVATITRSGGNTYADSVKGRFTISRDNAKNTVYLQMNSLKPEDTAVYYCNADQRRSYWLVSQRYDYWGQGTQVTVSS | low polyreactivity |
| QVQLVESGGGLVQAGGSLRLSCAASGSTFVRYVMGWYRQAPGKERELVAAISRRGGSTYYADSVKGRFTIARDNAKNTVYLQMNSLKPDDTAVYYCAAVYRLRGAFSRGYWGQGTQVTVSS | high polyreactivity |
| QVQLVESGGGLVQAGGSLRLSCAASGRTSGFNTMGWYRQAPGKERELVAAISFSGGSTYYADSVKGRFTISRDNAKNTVYLQMNSLKPEDTAVYYCNALYRYLYRSGDYWGQGTQVTVSS | low polyreactivity |
| QVQLVESGGGLVQAGGILRLSCAASGRTFYYYAMGWYRHERGKERELVAAISISGGTNYADSVKGRFTISRDNAKNTVYLQMNSLKPEDTAVYYCAAYLRHESPSIWDRYDYWGQGTQVTVSS | low polyreactivity |
| QDQLVDSGGGLVQAGGSLRLSCAASGRTIISYAMGRYRPAPGKERELVATITRDGRTNYADSVKGRFTISRDNAKNTVYLQMNSLNPEDTAVYYCNADSRYRYDYWGQGSQVTVSS | low polyreactivity |
| QVQLVESGGGLVQAGGSLRLSCAASGFTFSSYAMGWYRQAPGKERELVAAISTRGGSTYYADSVKGRFTISRDNAKNTVYLQMNSLKPEETAVYYCAARYGTSYKVRWTYYAFDYWGQGTQVTVSS | low polyreactivity |
| QVQLVESGGGLVQAGGSLRLSCAASGITFGGNALGWYRQAPGTERELVAGIDDGGSTNYADSVKGRFTISRDNAKNTVYLQMNSLKPEDTAVYYCAVQGHPPLVILPGFLFDYWGQGTQVTVSS | low polyreactivity |
| QVQLVESGGGLVQAGGSLRLSCAASGSTFWVNAMGWYRQAPGKERELVAAISERGGRTYYADSVKGRFTISRDNAKNTVYLQMNSLKPEDTAVYYCNRVTRSNVDYWGQGTQVTVSS | high polyreactivity |
| QVQLVESGGGLVQAGGSLRLICAASGILVYNAMGWYRQAPGKERELVAAISARGGRKYYADSVKGRFTISRDNAKNTVYLQMYSLKTEDTAVYYCATLETSGVNYWGQGTQVTVSS | high polyreactivity |
| QVQLVESGGGLVQAGGSLRLSCAASGSIFQDNTMGWYRQAPGKESELVAAISWSATSTYYADSVKGRFTISRDNAKNTVYLQMNSLNPEDTAVYYCAARYWLFPPGYNYWGQGTQVNVSS | high polyreactivity |
| QVQIVESWGCLVQAGGSLRLSCAASVNIFNVNAMGWSRQAPRKEREFLAAITSGANSYYADSEKGRFTISRDNAKNSVFLQMNSLKPEDTAVYYCAAEDGSYYRRNRFYYWGQGTQVTVSS | high polyreactivity |
| QVHHVESGGGLVQAGGSLRLSCAASGFTFDLYATVLSRQAPRKERELVAAITWRGGSTYYADSVKGRFAISRDNAKNTVYLQMNSLQPEDTAVYYCAADYVIVDDAWLITVEMDSWGQGTQVTVSS | low polyreactivity |
| QVQIVESGGGLVQAGGSLRLSCAASGSTLGVNAMGWYRQAPGKERELVAAISKSGGGTYYADSVKGRFTISRDIAKNTVYLQMNRLIPEDTAVYYCNAPVSRKYYSWGQGTQVTVSS | high polyreactivity |
| QVQLVESGGGLVQAGGSLRLSCAASGRTFTYYAMGWYRQAPGKERELVAAIRYTGGSTHYADSVKGRFTISRDNAKNTVYLQIHSLKPEDTAVYYCGARRAYTRGGTVYFGYYYWGQGTQVTVSS | high polyreactivity |
| QVQLVESGGGLVQAGGSLRLSCAASGSTFQSYAMGWYRQAPGKERELVAAIDIGDSTYYADSVKGRYTISRDNAKNTVYLQMNSLKPEDTAVYYCAADDEDVLFDYWGQGTQVTVSS | low polyreactivity |
| QVQLVESGGGLVQAGGSLRLSCAASGFIFPYNAMGWYRQAPGKERELVAVISSSGGDTYYADSVKGRFTISRDNAKNTVYLQMNSLKPEDTAVYYCAADSYYGYEYWGQGTQVTVSS | low polyreactivity |
| QVQLVESGGGLVQAGGSLGVSCAASGSTFRTYAMGWYRQAPGKERELVAAISQRGGSTYYADSVKGRFTISRDNAKNTVYLQMNSLTPEDSAVYYCAARYGVRYIYRMDYWGQGSQVTVSS | high polyreactivity |
| QDQLVDSGGGLVQAGGSLRLSCAASGRTFGYYAMGWYRQAPGKERELVAAISISTGRTYYADSVKGRFTISRDNAKNTVYLQMNSLKPEDTAVYYCAAYYYGGRYHSEYDYWGQGTQVTVSS | high polyreactivity |
